Tests used:
[1] = biological target: the molecule itself; assay: SEC + native gel or EMSA; purified CHASE4 domain in solvent
[2] = biological target: the molecule itself; assay: cryo-EM structure; ImcA with the substrate analog GMPCPP, 10 mg/ml, 3.07 Å, C2 symmetry

B1: CHASE4 domain of IsmP (CHASE4^IsmP) (domain or fragment)
chain: not shown
notes: CHASE4 domain of IsmP (PA2072) of Pseudomonas aeruginosa PAO1; interface residues Q51, W55 and P247 lie outside 59-220; also called CHASE4 (IsmP^40-255); source: E. coli BL21, purified (HisTrap HP)
- stoichiometry N [1]: 2

B2: PA1851 protein (purified ImcA) (natural protein)
chain: MLARDSLVQAGLPDNPYARQLRNGFRWLRFEKELENEFREFLSWNSLMQRRAAIGVAFLIWALFIVADWMMVDIRLHPSLFEQLLGVRLGMIGLLLVVWPAAFLPSLRKVGDAIAPYCLLLINLAVLACDVLFEWHGVPRFTQLGATLGILAVFFPLGLAFWACVRLALLCLALNLAVFLLFGGEENLRTNLLNTLYNGLVVLICSFALYLQDYAQREQFLGRRLLGMMAEQDSLTGLVNRRYYELLAQRALEQGAREEKGVALILVDVDDFKAYNDHYGHPAGDAALRQLGVVLRQGARRPLDIAARLGGEEFAVLLYDSEEGNTLAIAERLRQAVEALGIEHLGSSAGPCLTISLGVAYSTSGMGLDALYREADRALYEAKDAGRNAVRVAFRQHDRLE
notes: ImcA (PA1851) of Pseudomonas aeruginosa PAO1; 6TM domain L47-E231, GGDEF domain R241-A393; Homodimer in the cryo-EM structure with GMPCPP; source: E. coli BL21 (DE3), purified (membrane fraction, DDM, Strep-Tactin, Superose 6)
- binding result [2]: binds
